Data: article PMC8179133, “PilB from Streptococcus sanguinis is a bimodular type IV pilin with a direct role in adhesion” (Proceedings of the National Academy of Sciences of the …, 2021)

How the values were obtained:
[1] = biological target: fibronectin from human plasma (human); test: ELISA; putative ligands (5 µg/mL in carbonate-bicarbonate buffer, 50 µL) adsorbed on MaxiSorp plates O/N at 4 °C; blocked 1 h with 3% BSA or 1% gelatin in PBS; serial twofold dilutions of 6His-PilB (40 to 0.625 µg/mL) for 2 h at 37 °C; detected with anti-6His antibody and HRP-linked anti-rabbit IgG, read at 450 nm; Kd by nonlinear regression (One site - Total and nonspecific binding) with BSA or gelatin as nonspecific binding control
[2] = biological target: fibrinogen from human plasma (human, UniProt P02671 36-866; P02675 45-491; P02679 27-453, Plasma-purified disulfide-linked (AalphaBbetagamma)2 hexamer, N-glycosylated on the beta and gamma chains, fibrinopeptides A and B retained. Limits are not printed. The alpha chain is taken as the mai); test: ELISA; putative ligands (5 µg/mL in carbonate-bicarbonate buffer, 50 µL) adsorbed on MaxiSorp plates O/N at 4 °C; blocked 1 h with 3% BSA or 1% gelatin in PBS; serial twofold dilutions of 6His-PilB (40 to 0.625 µg/mL) for 2 h at 37 °C; detected with anti-6His antibody and HRP-linked anti-rabbit IgG, read at 450 nm; Kd by nonlinear regression (One site - Total and nonspecific binding) with BSA or gelatin as …; settings: both partners purified
Chain of fibrinogen from human plasma (P02671 36-866, chain 1 of 3): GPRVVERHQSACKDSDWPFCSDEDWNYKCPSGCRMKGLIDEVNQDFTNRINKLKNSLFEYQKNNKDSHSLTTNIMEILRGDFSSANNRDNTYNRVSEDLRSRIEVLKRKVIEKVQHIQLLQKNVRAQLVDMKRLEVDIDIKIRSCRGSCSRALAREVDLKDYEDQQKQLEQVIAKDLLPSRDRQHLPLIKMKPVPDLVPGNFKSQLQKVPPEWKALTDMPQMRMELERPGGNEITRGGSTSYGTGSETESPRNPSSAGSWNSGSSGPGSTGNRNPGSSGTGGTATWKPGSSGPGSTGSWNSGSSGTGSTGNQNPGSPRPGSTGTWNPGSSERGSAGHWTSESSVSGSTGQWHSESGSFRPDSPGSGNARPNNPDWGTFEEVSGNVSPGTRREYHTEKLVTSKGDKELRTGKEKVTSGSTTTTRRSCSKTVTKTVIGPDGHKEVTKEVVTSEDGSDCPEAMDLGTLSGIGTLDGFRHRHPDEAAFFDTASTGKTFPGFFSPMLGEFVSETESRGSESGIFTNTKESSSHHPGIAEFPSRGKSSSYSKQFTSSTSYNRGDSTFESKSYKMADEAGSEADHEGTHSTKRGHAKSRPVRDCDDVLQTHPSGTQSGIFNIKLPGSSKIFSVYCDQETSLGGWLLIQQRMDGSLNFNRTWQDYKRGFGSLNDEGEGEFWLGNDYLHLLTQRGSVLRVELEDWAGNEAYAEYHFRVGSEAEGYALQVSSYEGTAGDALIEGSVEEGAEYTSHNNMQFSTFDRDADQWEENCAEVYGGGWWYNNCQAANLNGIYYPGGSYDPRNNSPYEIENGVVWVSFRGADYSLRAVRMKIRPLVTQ
Chain of fibrinogen from human plasma (P02675 45-491, chain 2 of 3): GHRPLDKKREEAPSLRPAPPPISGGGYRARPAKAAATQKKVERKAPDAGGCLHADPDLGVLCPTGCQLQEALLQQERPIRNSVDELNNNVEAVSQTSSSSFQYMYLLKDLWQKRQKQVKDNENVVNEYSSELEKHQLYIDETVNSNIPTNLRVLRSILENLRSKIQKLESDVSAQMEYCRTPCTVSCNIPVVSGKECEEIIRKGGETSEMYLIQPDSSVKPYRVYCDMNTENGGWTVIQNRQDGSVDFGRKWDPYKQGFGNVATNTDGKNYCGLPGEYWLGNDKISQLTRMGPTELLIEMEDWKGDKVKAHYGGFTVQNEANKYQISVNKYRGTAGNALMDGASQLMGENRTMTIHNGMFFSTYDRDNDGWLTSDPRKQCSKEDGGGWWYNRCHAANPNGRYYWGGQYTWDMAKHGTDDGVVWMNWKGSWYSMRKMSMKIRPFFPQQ
Chain of fibrinogen from human plasma (P02679 27-453, chain 3 of 3): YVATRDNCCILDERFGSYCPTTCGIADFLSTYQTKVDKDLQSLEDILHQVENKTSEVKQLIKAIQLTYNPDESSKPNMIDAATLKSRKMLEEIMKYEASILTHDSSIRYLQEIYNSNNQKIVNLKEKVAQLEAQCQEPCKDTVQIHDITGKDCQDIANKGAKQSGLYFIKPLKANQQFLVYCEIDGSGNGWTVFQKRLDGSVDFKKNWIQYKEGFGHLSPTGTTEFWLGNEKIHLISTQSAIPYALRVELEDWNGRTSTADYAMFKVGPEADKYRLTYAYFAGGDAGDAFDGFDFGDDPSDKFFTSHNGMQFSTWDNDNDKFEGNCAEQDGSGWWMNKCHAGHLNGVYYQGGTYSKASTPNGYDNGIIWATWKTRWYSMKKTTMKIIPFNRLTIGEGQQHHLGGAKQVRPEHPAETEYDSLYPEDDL

For “6His-PilB_(36-461) (from UniProt A0A0B7GP99 36-461) (domain or fragment)”, the Kd [1] was 494 nM.

Molecule “PilBvWA (from UniProt A0A0B7GP99 192-461) (domain or fragment)” has a Kd [1] of 997 nM.

B1: PilBvWA (domain or fragment)
chain: QGQMNIAVSFVFDTSGSMDWDLQGRNVKKTGNESRMDILRKKSVIMIKDLAEIGNISVNLVGFSTSAKYIQQNFSNLDNGTNTIIATITKRENLNPDGVTNPGDGLRYGMISLQSQPAQLKYIVLLTDGIPNAYLVDSRALYAGNRVDLSQGAGRVTFNNPIYDLSPTLGYEYSRLGYDLYSRDSITRENSIAYAGEVSKKFGLGIKRVNVIGFSGVNHEIAYGQSLTDRIGEGGMETKYVSATNEEALQKTFSDIKKQIQQDLWFVSGP
notes: PilB of Streptococcus sanguinis 2908, residues 192-461: only the von Willebrand factor A-like (vWA) module; expressed from pET28-pilB192-461; also called vWA module of PilB; PilB 192-461; source: E. coli BL21(DE3), purified; not shown: 6His, N-terminal, kept
For B1, the Kd [2] was 337 nM.

B2: 6His-PilB_(36-461) (domain or fragment)
chain: SSRELIEREASIQAEMRTSMQYVDRTVGKATSIFILDDSKFKGSKQGLTREWSYIGLSADGKKVMNYVWNKQKQDWDVSELGTKSLYNMKLDLEFKTEGAYQDNRLISYNLTGKYPDTNNKLGIDTAISALNTKQVFSKVAKGKKGIAIAYRTDPIQGQMNIAVSFVFDTSGSMDWDLQGRNVKKTGNESRMDILRKKSVIMIKDLAEIGNISVNLVGFSTSAKYIQQNFSNLDNGTNTIIATITKRENLNPDGVTNPGDGLRYGMISLQSQPAQLKYIVLLTDGIPNAYLVDSRALYAGNRVDLSQGAGRVTFNNPIYDLSPTLGYEYSRLGYDLYSRDSITRENSIAYAGEVSKKFGLGIKRVNVIGFSGVNHEIAYGQSLTDRIGEGGMETKYVSATNEEALQKTFSDIKKQIQQDLWFVSGP
notes: pilin module, short loop and vWA module; 48.4 kDa; synthetic gene codon optimized for E. coli; The 6His tag is noncleavable; also called native PilB; soluble portion of PilB; not shown: 6His, N-terminal, kept
Molecule B2 has a Kd [2] of 865 nM.
